Four molecules from US20180244777A1 (NUMAB THERAPEUTICS, published 2018) can be followed below.

The EC50 is the concentration needed to bring the measured effect to its halfway point. Broadly, the Kd is the concentration at which binding is half-saturated. The term koff denotes the rate constant with which the complex falls apart. What is called kon is a measure of how fast the partners come together.

Test [1] deals with T1, linear 15mer peptide derived from cynomolgus CD3ε residues 2-16 (wild type of the substitution library, Set 2) (cynomolgus).
T1 construct: Probed as a saturation mutagenesis library on a peptide array
T1 peptide: DGNEEMGSITQTPYQ
Nature of the test: 15mer peptide array ELISA. A general note: ELISA stands for enzyme-linked immunosorbent assay.

Test [2] has as its target T2, linear 15mer peptide derived from human CD3ε residues 2-16 (wild type of the substitution library, Set 1) (human).
T2 construct: Probed as a saturation mutagenesis library on a peptide array
T2 peptide: DGNEEMGGITQTPYK
Briefly: 15mer peptide array ELISA.

For test [3], the target named is T3, human CD3ε expressed on the cell surface of T cells (Jurkat cells; human CD8+ T cells) (human, UniProt P07766 23-207).
T3 construct: whole, on cells; also called native CD3ε embedded in the TCR complex on Jurkat cells
Nature of the test: cell-based ELISA on Jurkat cells, CD3ε-deficient Jurkat subtracted. The method, then:
Jurkat cells (clone E6-1), a human T cell line, were seeded at 300,000 cells/well in round bottom 96-well plates in 100 μl phosphate-buffered saline (PBS) containing 10% FBS. Five-fold serial dilutions of anti-CD3 rabbit monoclonal antibodies ranging from 90 nM to 0.0058 nM were added to the plates in 100 μl PBS containing 10% FBS. […] This secondary antibody was linked to the enzyme horseradish peroxidase (HRP). HRP activity was measured by addition of TMB substrate (3,3′,5,5′-tetramethylbenzidine, KPL, Cat. No. 53-00-00), which in a colorimetric reaction is processed by the HRP. The color intensity of the processed substrate is directly proportional to the amount of anti-CD3 antibody bound to Jurkat cells. To quantify color intensity, light absorbance (optical density) at the respective wave length was measured using a microtiter plate reader (Infinity reader M200 Pro, Tecan).
To correct for unspecific binding of the antibodies to unknown components presented on the cell surface of Jurkat cells, a CD3ε deficient derivative of the Jurkat T cell line (J.RT3-T3.5) was used. Binding of the monoclonal antibodies to this cell line was measured as described above for the Jurkat cells. For quantification of specific binding to Jurkat cells, the optical density for binding to the negative control was subtracted from the optical density for binding to Jurkat cells. Data were analyzed using a four-parameter logistic curve fit using the Softmax Data Analysis Software (Molecular Devices), and the molar concentration of anti-CD3 antibody required to reach 50% binding (EC₅₀, mid-OD of the standard curve) was derived from dose response curves.

For test [4], the target named is T4, human heterodimeric single-chain CD3εγ extracellular domain (human, UniProt P07766 23-126; P09693 23-116).
T4 construct: extracellular domain; Produced in-house; also called scCD3γε; human CD3ge
Nature of the test: SPR, rabbit IgG captured, human single-chain CD3εγ ECD injected. How it is done:
Binding affinities of monoclonal rabbit anti-CD3 antibodies were measured by surface plasmon resonance (SPR) using a MASS-1 SPR instrument (Sierra Sensors). […] Rabbit monoclonal antibodies were captured by the immobilized anti-rabbit IgG antibody. Two-fold serial dilutions of human heterodimeric single-chain CD3εγ extracellular domain (produced in-house) ranging from 90 to 2.81 nM were injected into the flow cells for 3 min and dissociation of the protein from the IgG captured on the sensor chip was allowed to proceed for 5 min. After each injection cycle, surfaces were regenerated with two injections of 10 mM glycine-HCl. The apparent dissociation (kd) and association (ka) rate constants and the apparent dissociation equilibrium constant (KD) were calculated with the MASS-1 analysis software (Analyzer, Sierra Sensors) using one-to-one Langmuir binding model.
(SPR reads the build-up and loss of mass on a sensor chip optically.)

Test [5] has as its target T5, linear 15mer peptides derived from human CD3ε residues 5-20 (Set 3) (human).
T5 construct: also called peptides spanning residues 5-20
T5 peptide: EEMGGITQTPYKVSIS
Nature of the test: peptide array ELISA, Set 3. How it is done:
(§1) The binding of the antibodies to each of the synthesized peptides was tested by ELISA. The peptide arrays were incubated with primary antibody solution (overnight at 4° C.). After washing, the peptide arrays were incubated with a 1/1000 dilution of an antibody peroxidase conjugate (SBA, cat.nr.2010-05) for one hour at 25° C. After washing, the peroxidase substrate 2,2′-azino-di-3-ethylbenzthiazoline sulfonate (ABTS) and 2 μl/ml of 3% H₂O₂ were added. After one hour, the color development was measured. The color development was quantified with a charge coupled device (CCD)—camera and an image processing system.

The target in test [6] is T6, cynomolgus monkey heterodimeric single-chain CD3εγ extracellular domain (cynomolgus monkey, UniProt Q95LI5 22-117; Q95LI7 23-113). Nature of the test: SPR, rabbit IgG captured, cyno single-chain CD3εγ ECD injected.
T6 sequence (Q95LI7 other isoform, or with tags, fused parts or gaps): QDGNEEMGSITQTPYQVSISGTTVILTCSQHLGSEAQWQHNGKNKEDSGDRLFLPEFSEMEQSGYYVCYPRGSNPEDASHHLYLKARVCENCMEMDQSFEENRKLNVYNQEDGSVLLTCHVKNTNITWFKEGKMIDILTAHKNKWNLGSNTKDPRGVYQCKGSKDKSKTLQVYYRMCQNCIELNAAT
Test [7] has as its target T7, linear 15mer peptides derived from cynomolgus CD3ε residues 5-20 (Set 4) (cynomolgus).
T7 construct: also called peptides spanning residues 5-20
T7 peptide: EEMGSITQTPYQVSIS
Briefly: peptide array ELISA, Set 4. How it is done:
as §1

Test [8] concerns the target T6, cynomolgus monkey heterodimeric …. Briefly: SPR; ratio of the KDs for cyno and human single-chain CD3εγ.
Test [9] concerns the target T3, human CD3ε expressed on the cell …. Nature of the test: cell-based or functional assay.
Test [10] has as its target T8, mouse IL23R (mouse, UniProt Q8K4B4 24-374, limits assumed).
T8 sequence (looked up): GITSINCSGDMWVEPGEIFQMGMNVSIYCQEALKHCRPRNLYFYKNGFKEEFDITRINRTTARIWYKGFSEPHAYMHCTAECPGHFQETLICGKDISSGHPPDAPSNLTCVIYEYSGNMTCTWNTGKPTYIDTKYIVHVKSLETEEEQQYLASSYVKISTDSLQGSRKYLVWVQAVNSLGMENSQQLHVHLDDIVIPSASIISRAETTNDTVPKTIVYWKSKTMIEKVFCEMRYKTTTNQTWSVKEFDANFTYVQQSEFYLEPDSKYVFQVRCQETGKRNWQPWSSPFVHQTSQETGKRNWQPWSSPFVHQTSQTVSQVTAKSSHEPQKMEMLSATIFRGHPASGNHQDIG
Nature of the test: SPR.

Test [11] addresses T9, mouse CD3ε (mouse, UniProt P22646 22-108, limits assumed). Briefly: SPR.
Test [12] has as its target T8, mouse IL23R. Nature of the test: SPR. The source holds these as a separate data set.
Test [13] deals with T9, mouse CD3ε. Briefly: SPR. This is another data set of the same source.

Where two headings read alike, the source gives them in different places.

T9 sequence (P22646 22-108 limits assumed): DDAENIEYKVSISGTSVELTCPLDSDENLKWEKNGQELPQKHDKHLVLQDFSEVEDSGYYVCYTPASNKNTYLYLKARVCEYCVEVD

B1: clone-04 (antibody, V domains shown)
VH: QSLEESGGRLVKPDETLTLTCTVSGFPLSSYAMGWFRQAPGKGLEWIGMILRSDNTYYASWAKGRFTISKTSTTVDLKITSPTTEDTATYFCARRHYNASGNPIAIGDLWGPGTLVTVSS
VL: AQVLTQTPSSVSAAVGGTVTINCQSSQSVYNNNRLSWFQQKPGQPPKLLIYTTSSLASGVPSRFKGSGSGTEFTLTISDLECADAATYYCQGEFSCSRADCFNFGGGTEVVVKG
notes: Recombinant rabbit IgG; also called Clone 4
For B1, in test [1], the binding result is “binds”. Besides, the binding result in test [2] is “binds”. The molecule also had an EC50 in [3] of 1.87 nM. In addition, in test [4], the Kd worked out at 0.113 nM, the koff was found to be 9.88e-05 s⁻¹ and the kon came out at 873000 M⁻¹ s⁻¹. In test [5], the binding result is “no binding”. Moreover, in [6], the Kd came to 4.12 nM, the koff stood at 0.00266 s⁻¹ and the kon turned out to be 646000 M⁻¹ s⁻¹. Also, the binding result in test [7] is reported as “no binding”. Moreover, the “KD (human)/KD (cyno)” value in test [8] was found to be 36. For the same molecule, in test [9], the “Fold increase in CD69 expression [MFI normalized to neg. ctrl.], 1.25 µg/ml anti-CD3 IgG” value was found to be 2.6 fold; the “Fold increase in CD69 expression [MFI normalized to neg. ctrl.], 5 µg/ml anti-CD3 IgG” value was 3.5 fold; the “Fold increase in CD69 expression [MFI normalized to neg. ctrl.], 20 µg/ml anti-CD3 IgG” value is 7.8 fold.

B2: PRO386 (bispecific antibody)
light: DIQMTQSPSSLPASLGDRVTINCQASQDISNYLNWYQQKPGKAPKLLIYYTNKLADGVPSRFSGSGSGRDSSFTISSLESEDIGSYYCQQYYNYPWTFGPGTKLEIKRRTVAAPSVFIFPPSDEQLKSGTASVVCLLNNFYPREAKVQWKVDNALQSGNSQESVTEQDSKDSTYSLSSTLTLSKADYEKHKVYACEVTHQGLSSPVTKSFNRGECGGGGSGGGGSHMDIQMTQSPSSLSASVGDRVTITCQASENIYSFLAWYQQKPGKAPKLLIYSASKLAAGVPSRFSGSGSGTDFTLTISSLQPEDFATYYCQQTNRYSNPDIYNVFGQGTKLTVLGGGGGSGGGGSGGGGSGGGGSEVQLVESGGGLVQPGGSLRLSCAASGIDFNSNYYMCWVRQAPGKGLEWIGCIYVGSHVNTYYANWAKGRFTISRDNSKNTVYLQMNSLRAEDTAVYYCATSGSSVLYFKFWGQGTLVTVSS
heavy: EVQLVESGGGLVQPGKSLKLSCEASGFTFSGYGMHWVRQAPGRGLESVAYITSSSINIKYADAVKGRFTVSRDNAKNLLFLQMNILKSEDTAMYYCARFDWDKNYWGQGTMVTVSSASTKGPSVFPLAPSSKSTSGGTAALGCLVKDYFPEPVTVSWNSGALTSGVHTFPAVLQSSGLYSLSSVVTVPSSSLGTQTYICNVNHKPSNTKVDKKVEPKSCGGGGSGGGGSHMDIQMTQSPSSLSASVGDRVTITCQASENIYSFLAWYQQKPGKAPKLLIYSASKLAAGVPSRFSGSGSGTDFTLTISSLQPEDFATYYCQQTNRYSNPDIYNVFGQGTKLTVLGGGGGSGGGGSGGGGSGGGGSEVQLVESGGGLVQPGGSLRLSCAASGIDFNSNYYMCWVRQAPGKGLEWIGCIYVGSHVNTYYANWAKGRFTISRDNSKNTVYLQMNSLRAEDTAVYYCATSGSSVLYFKFWGQGTLVTVSS
notes: Heterodimer; 2C11 Fab with an anti-IL23R scFv 14-11-D07-sc01 on the C-terminus of each chain; also called Tribody; bispecific, trivalent Fab-scFv fusion surrogate molecule
Turning to B2, in [10], the dissociation constant (Kd) amounted to 0.583 nM, the koff came to 0.000533 s⁻¹ and the association rate constant (kon) worked out at 915000 M⁻¹ s⁻¹. In [11], this molecule came in with a Kd of 11.5 nM, a koff of 0.00196 s⁻¹ and an on-rate constant (kon) of 171000 M⁻¹ s⁻¹.

B3: PRO400 (Fab, V domains shown)
VH: EVQLVESGGGLVQPGKSLKLSCEASGFTFSGYGMHWVRQAPGRGLESVAYITSSSINIKYADAVKGRFTVSRDNAKNLLFLQMNILKSEDTAMYYCARFDWDKNYWGQGTMVTVSS
VL: DIQMTQSPSSLPASLGDRVTINCQASQDISNYLNWYQQKPGKAPKLLIYYTNKLADGVPSRFSGSGSGRDSSFTISSLESEDIGSYYCQQYYNYPWTFGPGTKLEIKR
notes: Chimeric Fab: hamster 2C11 variable domains with human CL and CH1; also called anti-mCD3 Fab; 2C11 Fab
Take B3: in test [11], the Kd was found to be 11.4 nM, the koff came out at 0.00266 s⁻¹ and the kon was determined as 233000 M⁻¹ s⁻¹.

B4: PRO387 (bispecific antibody)
chain: DIQMTQSPSSLSASVGDRVTITCQASENIYSFLAWYQQKPGKAPKLLIYSASKLAAGVPSRFSGSGSGTDFTLTISSLQPEDFATYYCQQTNRYSNPDIYNVFGQGTKLTVLGGGGGSEVQLVESGGGLVQPGKSLKLSCEASGFTFSGYGMHWVRQAPGRGLESVAYITSSSINIKYADAVKGRFTVSRDNAKNLLFLQMNILKSEDTAMYYCARFDWDKNYWGQGTMVTVSSGGGGSGGGGSGGGGSGGGGSDIQMTQSPSSLPASLGDRVTINCQASQDISNYLNWYQQKPGKAPKLLIYYTNKLADGVPSRFSGSGSGRDSSFTISSLESEDIGSYYCQQYYNYPWTFGPGTKLEIKRGGGGSEVQLVESGGGLVQPGGSLRLSCAASGIDFNSNYYMCWVRQAPGKGLEWIGCIYVGSHVNTYYANWAKGRFTISRDNSKNTVYLQMNSLRAEDTAVYYCATSGSSVLYFKFWGQGTLVTVSS
notes: scDb VLA-L1-VHB-L2-VLB-L3-VHA, A = anti-IL23R, B = anti-mouse CD3ε 2C11; also called bispecific single-chain diabody surrogate (scDb); anti-IL23R 14-11-D07-sc01 × anti-mCD3 2C11
For the molecule B4, in test [12], the equilibrium dissociation constant (Kd) is 4.66 nM, the koff came to 0.00326 s⁻¹ and the kon came out at 701000 M⁻¹ s⁻¹. In test [13], this molecule showed a Kd of 9.11 nM, a dissociation rate constant (koff) of 0.00213 s⁻¹ and a kon of 233000 M⁻¹ s⁻¹.
